Target: Notch-1 receptor on RIN 1046-38 clonal rat beta-cells (rat, UniProt Q07008 19-2531)
Test: cell-based or functional assay

Chain of Notch-1 receptor on RIN 1046-38 clonal rat beta-cells (Q07008 19-2531): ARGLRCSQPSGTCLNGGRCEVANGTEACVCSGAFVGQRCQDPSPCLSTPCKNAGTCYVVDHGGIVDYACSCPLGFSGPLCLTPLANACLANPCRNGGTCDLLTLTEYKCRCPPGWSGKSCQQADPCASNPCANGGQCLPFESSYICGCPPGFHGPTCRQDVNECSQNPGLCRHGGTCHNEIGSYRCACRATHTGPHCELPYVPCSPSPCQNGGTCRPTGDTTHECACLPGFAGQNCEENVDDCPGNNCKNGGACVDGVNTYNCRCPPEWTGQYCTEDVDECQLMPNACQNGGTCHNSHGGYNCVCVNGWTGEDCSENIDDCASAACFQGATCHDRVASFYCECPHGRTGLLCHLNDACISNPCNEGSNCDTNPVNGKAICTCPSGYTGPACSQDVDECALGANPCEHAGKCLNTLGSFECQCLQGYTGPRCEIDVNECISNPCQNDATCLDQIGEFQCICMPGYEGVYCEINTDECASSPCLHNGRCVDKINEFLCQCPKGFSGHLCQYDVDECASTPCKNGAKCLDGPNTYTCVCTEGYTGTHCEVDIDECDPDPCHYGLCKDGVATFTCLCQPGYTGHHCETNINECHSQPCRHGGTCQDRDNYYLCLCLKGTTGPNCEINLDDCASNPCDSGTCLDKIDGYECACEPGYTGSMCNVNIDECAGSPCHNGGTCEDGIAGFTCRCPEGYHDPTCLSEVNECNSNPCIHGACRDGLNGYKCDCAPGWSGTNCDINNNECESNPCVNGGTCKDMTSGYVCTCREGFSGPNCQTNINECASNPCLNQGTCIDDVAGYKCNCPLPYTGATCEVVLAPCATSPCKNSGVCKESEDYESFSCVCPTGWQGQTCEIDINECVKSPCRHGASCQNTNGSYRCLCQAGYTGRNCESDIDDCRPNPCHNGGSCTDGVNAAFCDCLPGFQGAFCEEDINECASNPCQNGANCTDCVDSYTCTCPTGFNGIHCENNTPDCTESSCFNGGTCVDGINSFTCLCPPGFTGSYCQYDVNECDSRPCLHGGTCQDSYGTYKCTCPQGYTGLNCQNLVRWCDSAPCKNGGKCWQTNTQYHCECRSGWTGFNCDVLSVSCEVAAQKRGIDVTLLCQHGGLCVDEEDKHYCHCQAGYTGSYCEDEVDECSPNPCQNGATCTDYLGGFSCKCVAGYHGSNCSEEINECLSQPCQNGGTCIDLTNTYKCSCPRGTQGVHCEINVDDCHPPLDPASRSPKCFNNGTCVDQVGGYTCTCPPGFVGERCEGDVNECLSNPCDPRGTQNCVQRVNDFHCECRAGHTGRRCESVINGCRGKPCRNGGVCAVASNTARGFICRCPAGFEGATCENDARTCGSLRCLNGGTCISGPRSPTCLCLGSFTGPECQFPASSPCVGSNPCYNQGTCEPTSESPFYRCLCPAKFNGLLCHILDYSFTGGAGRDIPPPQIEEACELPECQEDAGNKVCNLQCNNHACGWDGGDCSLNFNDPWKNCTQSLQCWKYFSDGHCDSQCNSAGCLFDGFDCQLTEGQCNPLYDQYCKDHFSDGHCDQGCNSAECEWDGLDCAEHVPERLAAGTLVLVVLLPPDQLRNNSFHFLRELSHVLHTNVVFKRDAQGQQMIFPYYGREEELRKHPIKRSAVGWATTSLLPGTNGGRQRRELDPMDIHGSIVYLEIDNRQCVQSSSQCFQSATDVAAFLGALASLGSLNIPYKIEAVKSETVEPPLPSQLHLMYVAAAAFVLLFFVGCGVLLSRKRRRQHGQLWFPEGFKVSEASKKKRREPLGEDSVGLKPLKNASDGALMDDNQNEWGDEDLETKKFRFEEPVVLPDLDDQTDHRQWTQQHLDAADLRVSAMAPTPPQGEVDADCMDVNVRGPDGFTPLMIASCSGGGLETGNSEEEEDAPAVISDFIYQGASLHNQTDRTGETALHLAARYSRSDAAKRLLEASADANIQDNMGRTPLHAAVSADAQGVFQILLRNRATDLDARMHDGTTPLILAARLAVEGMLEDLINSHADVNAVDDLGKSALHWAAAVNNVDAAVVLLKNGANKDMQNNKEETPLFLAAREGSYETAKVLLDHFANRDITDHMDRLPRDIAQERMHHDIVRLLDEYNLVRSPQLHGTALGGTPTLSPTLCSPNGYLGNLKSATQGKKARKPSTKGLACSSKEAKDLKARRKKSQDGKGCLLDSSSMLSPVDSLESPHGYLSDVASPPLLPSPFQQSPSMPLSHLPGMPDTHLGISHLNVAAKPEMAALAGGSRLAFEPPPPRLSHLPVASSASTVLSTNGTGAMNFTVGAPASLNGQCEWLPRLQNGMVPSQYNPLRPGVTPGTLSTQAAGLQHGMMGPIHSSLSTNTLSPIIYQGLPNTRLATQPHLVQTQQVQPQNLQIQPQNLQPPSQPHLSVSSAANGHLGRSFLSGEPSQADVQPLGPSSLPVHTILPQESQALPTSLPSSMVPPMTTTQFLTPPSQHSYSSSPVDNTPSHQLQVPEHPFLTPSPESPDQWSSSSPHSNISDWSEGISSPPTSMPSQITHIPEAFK

Binder: CDDYYYGFGCNKFGRPRDD [Jagged peptide R-JAG]
- NICD nuclear localization, R-JAG together with glucose: 6 fold
- NICD translocation (nuclear NICD, immunoblot of nuclear extracts of RIN cells): 4 fold

Binder: CDDYYYGFGCNKFCRPR [Jagged peptide JAG-1]
- NICD translocation (nuclear NICD, immunoblot of nuclear extracts of RIN cells): 4 fold

Reference: patent US20080299088A1 (US Dept. of Health and Human Services, published 2008)
